T1: TNF-beta (human, UniProt P01374 35-205)
T1 construct: also called TNFβ; Tumour Necrosis Factor-beta
T1 sequence (looked up): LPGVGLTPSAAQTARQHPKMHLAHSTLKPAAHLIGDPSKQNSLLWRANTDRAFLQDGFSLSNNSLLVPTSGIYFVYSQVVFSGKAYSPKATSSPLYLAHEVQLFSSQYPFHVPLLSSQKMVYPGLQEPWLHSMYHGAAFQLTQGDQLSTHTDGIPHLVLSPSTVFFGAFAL


How the values were obtained:
TNF-alpha = molecular target: T2, TNF-alpha (human, UniProt P01375 77-233); assay: phage ELISA
T2 construct: also called TNFα; TNF-α

TRAIL = molecular target: T3, TRAIL (human, UniProt P50591 114-281); assay: phage ELISA
T3 construct: also called TNF-related apoptosis inducing ligand
T3 sequence (P50591 114-281 limits assumed): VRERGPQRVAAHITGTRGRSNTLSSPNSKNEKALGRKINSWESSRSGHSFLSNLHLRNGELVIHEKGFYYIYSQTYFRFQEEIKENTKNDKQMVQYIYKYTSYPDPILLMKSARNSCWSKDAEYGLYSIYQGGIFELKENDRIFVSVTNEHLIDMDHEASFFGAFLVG

TNF-beta = molecular target: T1, TNF-beta; assay: phage ELISA
LIGHT = LIGHT (human, UniProt O43557 74-240, limits assumed); assay: phage ELISA
Sequence of LIGHT (O43557 74-240 limits assumed): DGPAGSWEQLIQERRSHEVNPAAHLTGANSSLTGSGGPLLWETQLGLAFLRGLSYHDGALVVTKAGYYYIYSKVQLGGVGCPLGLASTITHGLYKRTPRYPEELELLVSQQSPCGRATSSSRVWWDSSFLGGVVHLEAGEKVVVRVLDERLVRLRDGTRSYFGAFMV

[1] = molecular target: T4, biotinylated B Lymphocyte Stimulator, soluble form (human, UniProt Q9Y275 134-285, biotinylated with NHS-biotin, molar ratio 20:1 biotin:protein); assay: phage scFv, receptor binding inhibition on IM9 cells
T4 construct: also called bio-B Lymphocyte Stimulator; free B Lymphocyte Stimulator
Description: Fifty-five μl of each appropriate phage supernatant was added to each well and the final volume in each well was 65 μl. Plates were then incubated at room temperature for 30 minutes.
Plates were washed three times in PBST and three times in PBS, tapped dry and 50 μl of streptavidin-Delfia (Wallac) was added to each well at 1:1000 dilution in the Manufacturer's assay buffer. The plates were then incubated at room temperature for 1 hour and washed six times in Delfia wash solution (Wallac). After tapping the plates dry, 100 μl per well of Delfia enhancement solution (Wallac) was added. The plates were gently tapped to encourage micelle formation, incubated at room temperature for 10 minutes, and fluorescence read on a Wallac 1420 workstation at […].

[2] = molecular target: T5, B Lymphocyte Stimulator, soluble form (human) (human, UniProt Q9Y275 134-285, biotinylated with NHS-biotin where used as biotinylated B Lymphocyte Stimulator); assay: phage ELISA
T5 construct: Coated on plastic, captured on streptavidin plates, amine-coupled to a CM5 chip or free in solution, depending on the assay; also called BLyS; immobilized B Lymphocyte Stimulator

T2 sequence (P01375 77-233 limits assumed): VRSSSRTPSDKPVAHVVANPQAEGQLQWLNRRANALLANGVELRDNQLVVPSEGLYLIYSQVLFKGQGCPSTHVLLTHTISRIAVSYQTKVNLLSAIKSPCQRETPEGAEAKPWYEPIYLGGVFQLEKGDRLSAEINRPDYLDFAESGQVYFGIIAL

binding result (TNF-alpha)	binding result (TRAIL)	binding result (TNF-beta)	binding result (LIGHT)	binding result [1]	binding result [2]	Binder
no binding	no binding	no binding	no binding			I068C06 (scFv, also called I0068C06; I0068CO6) scFv: EVQLVQSGAEVKKPGSSVKVSCKASGGTVSSRTISWVRQAPGQGLEWMGGSLPPSGAPIYAQKFQGRVAITADALTNTAFMELRSLKSDDTAVYYCARDQGRYLDLWGKGTLVTVSSGGGGSGGGGSGGGGSAQAVLTQPSSVSGAPGQRVTISCTGSRSNIGAGYDVHWYQQLPGTAPKLLIYGNSNRPSGVPDRFSGSKSGTSASLAITGLQADDEADYYCQSYDTSLRGLFGTGTKVTVLG
				binds		I031C07 (scFv) scFv: EVQLVQSGAEVKKPGSSVKVSCRASGGSFIDGSINWLRQAPGQGLEWVGGTIPLANRANYAQKFRDRVTITADELTAIVFLELTSLRSDDTALYYCARSSPPRWYDALTGDSSYHSAMDVWGQGTMVTVSSGGGGSGGGGSGGGGSAQSALTQPPSASGSPGQSVTISCSGTSSDIGDSNSVSWYQQHPGKAPKLLIYEVTKRPSGVPDRFAGSRSDNTASLTVSGLQTEDEADYYCSSSAARNHLVFGGGTKVTVLG
no binding	no binding	no binding	no binding		binds	I026C04 (scFv) scFv: QVQLVQSGAEVKKPGSSVKVSCRASGGSFNHAISWVRQAPGRGLEWMGGILPMYGTANYAQKFQGRVTITADKLTNTVYMDLSRLRYEDTAVYYCARELGLSIVGATTGALDMWGKGTLVTVSSGGGGSGGGGSGGGGSAQSVLTQPPSVSAAPGQKVTISCSGSSSNIGNNYVSWYQQIPGTAPKLLIYENNKRPSGIPDRFSGSKSGASATLDITGLQTGDEADYYCGTWHSSQVVFGGGTKLTVLG
no binding	no binding	no binding	no binding		binds	I025B09 (scFv, also called I0025B09) scFv: QVHLVQSGAEVKKPGSSVKVSCRASGGSFNHAISWVRQAPGRGLEWMGGILPMYGTANYAQKFQGRVTITADKLTNTVYMDLSRLRYEDTAVYYCARELGLSIVGATTGALDMWGKGTLVTVSSGGGGSGGGGSGGGGSAQSVLTQPPSVSAAPGQKVTISCSGSSSNIGNNYVSWYQQIPGTAPKLLIYENNKRPSGIPDRFSGSKSGASATLDITGLQTGDEADYYCGTWHSSQVVFGGGTKLTVLG
no binding	no binding	no binding	no binding		binds	I025B06 (scFv) scFv: QVQLVQSGAEVKKPGSSVKVSCRASGGSFNHAISWVRQAPGRGLEWMGGILPMYGTANYAQKFQGRVTITADKLTNTVYMDLSRLRYEDTAVYYCARELGLSIVGATTGALDMWGKGTLVTVSSGGGGSGGGGSGGGGSAQSVLTQPPSVSAAPGQKVTISCSGSSSNIGNNYVSWYQQIPGTAPKLLIYENNKRPSGIPDRFSGSKSGASAALDITGLQTGDEADYYCGTWHSSQVVFGGGTKLTVLG
no binding	no binding	no binding	no binding			I026C04-K (scFv) scFv: QVQLVQSGAEVKKPGSSVKVSCRASGGSFNKHAISWVRQAPGRGLEWMGGILPMYGTANYAQKFQGRVTITADKLTNTVYMDLSRLRYEDTAVYYCARELGLSIVGATTGALDMWGKGTLVTVSSGGGGSGGGGSGGGGSAQSVLTQPPSVSAAPGQKVTISCSGSSSNIGNNYVSWYQQIPGTAPKLLIYENNKRPSGIPDRFSGSKSGASATLDITGLQTGDEADYYCGTWHSSQVVFGGGTKLTVLG
				binds		I012A06 (scFv) scFv: QVQLQESGPGVVKPSQTLSLTCTVSGVSISSDSYYWSWIRQPAGKGPEWIGRIYPTGSTNYNPSLKSRVTISVDTSKNQFSLQLTSVTAADTAVYYCARGRWDYDLLTGEHLGYYFDYWGRGTLVTVSSGGGGSGGGGSGGGGSALSSELTQDPAVSVALGQTVRITCQGDTLRNYYASWYQQKPGQAPVLVIHSRNNRPSGIPDRFSGSSSGTTASLTITGSQAEDEADYYCNSRDSSGNVIFGGGTKLTVLG
no binding	no binding	no binding	no binding		binds	I071B03 (scFv) scFv: QVQLQQSGAEVKKPGASVKVSCKASGYTFTKYTMHWVRQAPGQGPEWMGWINGGSGDTKYSRKFQGRVTITKDTSASAAYMELSSLGSEDTALYYCARATYDPLTGYSFDGFDIWGQGTMVTVSSGGGGSGGGGSGGGGSQSVLTQPASVSGSPGQSITISCTGTSSDVGGYNYVSWYQQHPGKAPKLMIYEGSKRPSGVSNRFSGSKSGNTASLTISGLQAEDEADYYCSSYTTRSTRVFGGGTKLTVLD
				binds		I022D01 (scFv) scFv: EVNLRESGGGVDQPGRSLRLSCAASGFTFSSYGMHWVRQAPGKGLEWVAVISYDGSNKYYADSVKGRFTISRDNSKNTLYLQMNSLRAEDTAVYYCAKDGYYDILTGYSYYGMDVWGQGPMVAVSSGGGGSGGGGSGGGGSSELTQDPAVSVALGQTVRITCQGDSLRSYYTNWFQQKPGQAPLLVVYAKNKRPSGIPDRFSGSSSGNTASLTITGAQAEDEADYYCNSRDSSGNHVVFGGGTKLTVLG
no binding	no binding	no binding	no binding		binds	I067F05 (scFv) scFv: QVQLQQSGAEVKKPGSSVKVSCKASGGTFSSYAISWVRQAPGQGLEWMGRIIPIVNMANYAQKFQGRVTLTADKSTGTAYMELTSLRSEDTAVYYCARENYDSLTGYYGAFDIWGKGTMVTVSSGGGGSGGGGSGGGGSQSVLTQPASVSGSPGQSITISCTGTSSDVGGYNYVSWYQQHPGKAPKLMIYEGSKRPSGVSNRFSGSKSGNTASLTISGLQAEDEADYYCSSYTTRSTRVFGGGTKLTVLG
no binding	no binding	no binding	no binding		binds	I030A10 (scFv) scFv: QVQLVQSGAEVKKPGSSVKVSCRASGGSFNHAISWVRQAPGRGLEWMGGILPMYGTANYAQKFQGRVTITADKLTNTVYMDLSRLRYEDTAVYYCARELGLSIVGATTGALDMWGRGTLVTVSSGGGGSGGGGSGGGGSAQAVLTQPSSVSGAPGQRVIISCTGSSSNIGPDYDVHWYQQLPGTAPKLLIYGNNNRPSGVPDRFSGSKSGTSASLAITGLQAEDEAHYYCQSYGSSLSGVVFGGGTKVTVLG
no binding	no binding	no binding	no binding		binds	I078D02 (scFv) scFv: QVQLQQSGAEVKKPGASVKVSCKASGYTFTSYGISWVRQAPGQGLEWMGWISAYNGNTNYAQKLQGRVTMTTDTSTSTAYMELRSLRSDDTAVYYCARVYYDILTGYNLFFDYWGKGTMVTVSSGGGGSGGGGSGGGGSQSVLTQPASVSGSPGQSITISCTGTSSDVGGYNYVSWYQQHPGKAPKLMIYEGSKRPSGVSNRFSGSKSGNTASLTISGLQAEDEADYYCSSYTTRSTRVFGGGTKLTVLG
no binding	no binding	no binding	no binding		binds	I078H08 (scFv) scFv: QVQLVQSAAEVKKPGASVKVSCKASGYTFTSYGISWVRQAPGQGLEWMGWISAYNGNTNYAQKLQGRVTMTTDTSTSTAYMELRSLRSDDTAVYYCARVYYDILTGYNLFFDYWGRGTTVTVSSGGGGSGGGGSGGGGSQSVLTQPASVSGSPGQSITISCTGTSSDVGGYNYVSWYQQHPGKAPKLMIYEGSKRPSGVSNRFSGSKSGNTASLTISGLQAEDEADYYCSSYTTRSTRVFGGGTKLTVLG
no binding	no binding	no binding	no binding		binds	I003C06 (scFv) scFv: QVQLVQSGAEVKKPGSSVKVSCRASGGSFNHAISWVRQAPGRGLEWMGGILPMYGTANYAQKFQGRVTITADKLTNTVYMDLSRLRYEDTAVYYCARELGLSIVGATTGALDMWGKGTLVTVSSGGGGSGGGGSGGGGSALPVLTQPPSVSVAPGQTATLTCGGTNFGRQSVHWYQQKPGQAPVLAIYHDDVRPSGIPERLSGSKSGNTATLTISRVEAGDEAAYYCQVWDSGSDVVVFGGGTKLTVLG

— patent US20110293610A1 (published 2011)
